# Measurements from patent US20240400689A1 (ANTENGENE BIOLOGICS, published 2024).
# Positions count from the first letter of the chain named.
# T1: human CD276 protein (human, UniProt Q5ZPR3 29-534)
# T1 construct: whole, on cells; for SKOV3 and the other cancer lines the protein is the cells' own; also called B7-H3; B7H3
# T1 sequence (looked up): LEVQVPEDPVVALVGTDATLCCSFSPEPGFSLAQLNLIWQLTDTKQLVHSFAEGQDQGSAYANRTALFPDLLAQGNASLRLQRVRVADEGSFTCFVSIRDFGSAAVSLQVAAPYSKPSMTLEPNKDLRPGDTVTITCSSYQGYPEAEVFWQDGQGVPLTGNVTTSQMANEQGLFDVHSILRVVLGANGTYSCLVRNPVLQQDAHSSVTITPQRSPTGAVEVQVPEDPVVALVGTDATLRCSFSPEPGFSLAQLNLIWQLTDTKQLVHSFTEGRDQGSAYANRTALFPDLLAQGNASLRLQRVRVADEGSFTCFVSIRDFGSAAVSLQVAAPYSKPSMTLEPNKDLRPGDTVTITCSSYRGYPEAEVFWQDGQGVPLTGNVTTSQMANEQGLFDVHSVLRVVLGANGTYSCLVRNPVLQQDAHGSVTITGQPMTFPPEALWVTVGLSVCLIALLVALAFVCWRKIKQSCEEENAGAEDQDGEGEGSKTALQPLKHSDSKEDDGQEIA
# T2: HUMAN B7H3 (Biacore analyte) (human, UniProt Q5ZPR3 29-461, limits assumed)
# T2 construct: also called hB7H3
# T2 sequence (looked up): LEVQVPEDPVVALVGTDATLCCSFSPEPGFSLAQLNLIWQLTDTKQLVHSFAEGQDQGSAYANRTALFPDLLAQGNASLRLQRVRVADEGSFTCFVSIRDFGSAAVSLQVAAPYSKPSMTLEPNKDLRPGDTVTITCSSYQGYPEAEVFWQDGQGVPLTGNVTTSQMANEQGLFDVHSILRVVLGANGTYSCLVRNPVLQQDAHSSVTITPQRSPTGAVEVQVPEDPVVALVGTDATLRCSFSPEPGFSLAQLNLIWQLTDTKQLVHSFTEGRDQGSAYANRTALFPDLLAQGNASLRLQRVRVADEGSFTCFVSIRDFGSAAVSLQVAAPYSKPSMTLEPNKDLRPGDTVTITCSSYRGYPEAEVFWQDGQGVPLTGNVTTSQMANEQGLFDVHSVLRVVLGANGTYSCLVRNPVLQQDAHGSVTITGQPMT
# B1: 27-E7-D8-C7 (human IgG1 chimeric antibody) (antibody, V domains shown)
# VH: EVQLQESGPELVRPGVSVKISCKGSGYTFTDYAMHWVKQSHAKSLEWIGVINTYSDNTNYNRKFKGKATMTVDKSSSTAYMELARLTSEDSAIYYCARGLLLRSQLGVYFDYWGQGTTLTVSS
# VL: QIVLSQSPAILSASPGEKVTMTCRASSSVSYMHWYQQKPGSSPKPWIYATSNLASGVPARFSGSGSGTSYSLTISRVEAEDAATYYCQQWSSNPWTFGGGTKLEIK
# notes: human IgG1 chimeric antibody of the mouse clone
# B2: 3-G7-D8-D3 (human IgG1 chimeric antibody) (antibody, V domains shown)
# VH: QVQLQQSGAELARPGTSVKLSCKASGYTFTTYWIQWVKQRPGQGLEWIGAIYPGDGDTRYTQKFKGKATLTADKSSSTAYMQLSTLASEDSAVYYCARPYDGYYIDYPMDSWGQGTSVTVSS
# VL: QIVLTQSPAIMSASPGEKVTMTCSASSRINYMHWYQQKPGTSPIIWIYDTSKLASGVPARFSGSGSGTSYSLTISSMEAEDAATYYCHQRSSYPFTFGSGTKLEIK
# notes: as for B1
# B3: 23-F10-G4-F11 (human IgG1 chimeric antibody) (antibody, V domains shown)
# VH: EVQLQESGPDLVRPGALVKLSCKSSGFNIKDYPIHWVRQRPEQGLEWIGWFDPDNGNVIYDPRFQGKASITADTSSNTAYLQLNSLTSEDTAVYYCSSPYGAMDYWGQGTSVTVSS
# VL: QIVLTQSPEIMSASPGEKVTMTCSASSSVSYIHWYQQKSGTSPKRWIYDTSKLASGVPARFSGSGSGTSYSLTIRSMEAEDAATYYCQQGSSNPRTFGGGTKLEIK
# notes: as for B1
# B4: 27-F8-E10-E11 (human IgG1 chimeric antibody) (antibody, V domains shown)
# VH: EVQLQQSGPELVKPGASVKISCKTSGYTFTEYAMHWVKQSHGKILEWIGGINPNIGGTTYNQKFKDKATLTVDKSSSTASMELRSLTSEDSAVYYCARFLVPSTEGFTYWGQGTLVTVSA
# VL: B3 VL with E9A, I32M, K52R, L53V, R75S, G90W, R95L, G99A, I105L
# notes: as for B1
# B5: 3-C2-C3-E7 (human IgG1 chimeric antibody) (antibody, V domains shown)
# VH: EVQLQQSGPELVKPGASVKISCKTSGYTFTENTMHWVKQSHGKRLEWIGGINPNTGGTTYNQKFKGKATLTVDKSSSTAYMELRSLTSEDSAVYYCARRGTNWEHWYFDVWGAGTTVTVSS
# VL: B3 VL with E9A, I32M, R75S, G90W, R95L, G99A, I105L
# notes: as for B1
# B6: 15-G1-D1-E3 (human IgG1 chimeric antibody) (antibody, V domains shown)
# VH: QVQLQQPGAELVKPGTSVKLSCKASGYTFTSYWIHWVKQRPGQGLEWIGMIHPKSGTVDYNEKFKSKATLTADKSSNTAYMQLSSLTSEASVVYYCARGENYDYRPQFVYWGQGTLVTVSA
# VL: QLVLTQSSSASFSLGASAKLTCTLSSQHSTYTIEWYQQQPLKPPKYVMELKKDGSHRTGDGIPDRFSGSSSGADRYLSISNIQPEDEAIYICGVGDTIKEQFVYVFGGGTKVTVL
# notes: as for B1
# B7: 11-G10-B4-B11 (human IgG1 chimeric antibody) (antibody, V domains shown)
# VH: DVQLQESGPGLVKPSQSLSLTCTVTGYSITSDYAWNWIRQFPGNKLEWMGYISYSGSTSYNPSLKSRISITRDTSKNQFFLQLNSVTTEDTATYYCARGGPWFAYWGQGTLVTVSA
# VL: DVVMTQTPLSLPVSLGDQASISCRSSQSLVHSNGNTYLHWYLQKPGQSPKLLIYKVSNRFSGVPDRFSGSGSGTDFTLKISRVEAEDLGVYFCSQSTHVPFTFGSGTKLEIK
# notes: as for B1
# B8: 21-B3-B1-H5 (human IgG1 chimeric antibody) (antibody, V domains shown)
# VH: QIQLVQSGPELKKPGETVKISCKASGYIFRNYGMNWVKQAPGKGLKWMGWINSYTGKPTYVDDFKGRFAFSLETSASTAYLQINNLKNEDMATYFCARDDGYWYTMDYWGQGTSVTVSS
# VL: B7 VL with N35H, F101W, S105G
# notes: as for B1
# B9: 9-G2-H6-E4 (human IgG1 chimeric antibody) (antibody, V domains shown)
# VH: EVQLQQSGPDLVKPGASVKISCKASGYSFTGYFMNWVKQRHGKSLEWIGYINPNNGDTIYNQKFKGKATLTVDKSSSTAHMELLSLTSEDSAVYYCGRGGLPFGALDYWGQGTSVTVSS
# VL: DIVMSQSPSSLAVSVGEKVNMSCKSSQSLLYSRNQKNYLAWNQQKPGQSPKLLIYWASARESGVPDRFTGSGSGTDFTLTISSVKAEDLAAYYCQQYHSYPYTFGGGTKLELK
# notes: as for B1
# B10: 30-E2-G7-G7 (human IgG1 chimeric antibody) (antibody, V domains shown)
# VH: EVQLQESGGGLVKPGGSLKLSCAASGFTFSYYAMSWVRQTPEKRLEWVATINGDGSHTYYPDSVRGRFTISRDNAKNTLYLQVSSLRSEDTAMYYCASLLQLGPFWGQGTTLTVSS
# VL: DIVMTQSQKFMSTSVGDRVSVTCKASQNVGTNVAWYHQRPGQSPKPLIYSASYRYSGVPDRFTGSGSGTDFTLTISNVQSEDLAEYFCQQYNNYPLTFGSGTKLEIK
# notes: as for B1
# B11: 14-E7-G9-D4 (human IgG1 chimeric antibody) (antibody, V domains shown)
# VH: EVQLQQSGPELVKPGASVKMSCKASGYTFTNYIMHWVKQKPGQGLEWIGYINPYNDGIKYNEKFKGKATLTSDKSSSTAYMELSSLTSEDSAVYYCTRWGNYVFYYTMDYWGQGTSVTVSS
# VL: QIVLSQSPAILSASPGEKVTMTCRASSSVSYMHWYQQKPGSSPKPWIYATSNLASGVPARFSGSGSGTSYSLTISRMEAEDAATYYCQQWSGNPPLTFGAGTKLELK
# notes: as for B1
# B12: 20-F8-B5-G2 (human IgG1 chimeric antibody) (antibody, V domains shown)
# VH: EVQLQESGPSLVKPSQTLSLTCSVTGDSITSAYWNWIRKFPGNKLEYMGYISNSGSTYYNPSLKSRISITRDTSKNQYYLQLNSVTTEDTGTYYCVRGERYYGYGAYWGQGTLVTVSA
# VL: DIVMTQATPSVPVTPGESISISCRSSKSLLHSNGNTYLYWFLQRPGQSPQLLIYRMSNLASGVPDRFSGSGSGTAFTLRISRVEAEDVGVYYCMQHLEYPFTFGAGTKLELK
# notes: as for B1
# B13: 9-E8-F9-C10 (human IgG1 chimeric antibody) (antibody, V domains shown)
# VH: EVQLQQSGAELVRPGTSVKISCKASGYAFSDYWLSWVKQRPGHGLEWIGDICPGSGNIYYNERFKDKVILTADRSSSTAYLQFSSLTSEDSVVYFCTRLITRVIDYWGQGTSVTVST
# VL: ENVLTQSPAIMSASPGEKVTMTCSASSSVNYMHWYQQKSSTSPKLWIYDTSKLSSGVPGRFSGSGSGNSYSLTISSMEAEDVATYYCFQGSGYPLTFGAGTKLELK
# B14: 5-D1-G6-D9 (human IgG1 chimeric antibody) (antibody, V domains shown)
# VH: EVQLQESGAELVKPGASVKLSCKTSGLTFSTNYISWLKQKPGQSLEWIAWIYGGNGGTSYNQRFTGKAQLTVDTSSSTAYMQFSSLTTEDSAIYYCTSHDYYGGPMDYWGQGTSVTVSS
# VL: DIQMTQTTSSLSASLGDRVTISCRASQDISNYLNWYQQKPDGTVKLLIYFTSRLHSGVPSRFSASGSGTDYSLTISNLEQEDIATYFCQQTNTLPWTFGGGTKLEIK
# B15: 2-A7-B10-A3 (human IgG1 chimeric antibody) (antibody, V domains shown)
# VH: QVQLQQSGAELVRPGVSVKISCKGSGYTFTDYAMHWVKQSHAKSLEWIGVINTNYVNTSYNQKFKGKATMTVDKSSSTAFMELARLTSEDSAIYYCARGGKYGNYVFFFAYWGQGTLVTVSA
# VL: B14 VL with F50Y, A64G, T91G, W96Y
# Molecular target: T1, human CD276 protein
# Assay: FACS on SKOV3 cells
# Source text: Sequences of 31 mouse antibodies from Table 5 were selected to generate and produce human IgG1 chimeric antibodies. The binding affinity of these antibodies and bench mark antibody, Enoblituzumab (see U.S. Pat. No. 8,802,091, MGA271, specifically with a construct designated as hBRCA84D-2) and MGC018 (an antibody-drug-conjugate, in which the mAb MGA017 (human IgG1) is conjugated via a cleavable linker to the prodrug seco-DUocarmycin hydroxyBenzamide Azaindole (DUBA), an alkylating agent that can damage DNA in both dividing and non-dividing cells, thereby causing cell death) with human patient derived ovarian cancer cell line, SKOV3, was determined by FACS analysis.
# 1. Digested cells using Trypsin (1×); Centrifuged the harvested cells at 300 g for 3 min and discarding the supernatant. […] 2. Washed the cells 2 times with FACS buffer by centrifuging at 300 g for 3 min and discarding the supernatant. [0445] 3. […] Kept the cells in dark for FACS analysis.
EC50 [µg/mL],MFI (Max),Binder
0.542,4750,B1
0.509,1210,B2
4.42,6720,B3
2.26,3220,B4
1.43,3700,B5
0.811,3190,B6
0.536,3750,B7
0.723,2720,B8
3.66,292,B9
0.814,5630,B10
1.62,2730,B11
1.11,3010,B12

# Molecular target: T2, HUMAN B7H3 (Biacore analyte)
# Assay: SPR, Biacore 8K, antibody captured, B7H3 as analyte, 1:1 binding
Kd [pM],koff [s⁻¹],kon [M⁻¹ s⁻¹],Binder
621,0.000173,278000,B4
383,0.000211,550000,B6

# Molecular target: T1, human CD276 protein
# Assay: cell-based or functional assay
row,EC50 of antibody induced ADCC effect on SKOV3 [µg/mL],Binder
1,0.103,B1
2,4.05,B13
3,0.00898,B2
4,0.137,B3
5,0.0238,B4
6,0.186,B5
7,0.0655,B6
8,17.3,B7
9,0.648,B8
10,13.6,B9
11,0.247,B10
12,0.252,B11
13,1.55,B14
14,4.21,B15
15,3.01,B12
